Earlier results on one substance are cited in publication PMC6005205.

The data set addresses ACKR3 (Homo sapiens) (UniProt P25106).
UniProt P25106, sequence (P25106 whole entry): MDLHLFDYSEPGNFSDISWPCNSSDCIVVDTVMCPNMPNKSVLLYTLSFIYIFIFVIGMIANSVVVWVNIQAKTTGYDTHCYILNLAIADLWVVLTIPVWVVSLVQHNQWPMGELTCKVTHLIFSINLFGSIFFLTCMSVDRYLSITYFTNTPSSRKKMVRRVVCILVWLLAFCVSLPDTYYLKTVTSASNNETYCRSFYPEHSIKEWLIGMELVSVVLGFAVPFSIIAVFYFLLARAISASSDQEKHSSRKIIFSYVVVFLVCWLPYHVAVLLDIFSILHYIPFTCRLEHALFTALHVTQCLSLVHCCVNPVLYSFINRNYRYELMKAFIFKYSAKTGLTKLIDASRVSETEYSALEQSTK

Consider adrenomedullin (from UniProt P35318), for which the Kd is 0.2 nM.

In general, Kd refers to a measure of binding affinity in units of concentration.
